Data reported in patent publication EP3222712A1, “ALCOHOL DEHYDROGENASE FROM PICHIA PASTORIS AND USE THEREOF” (priority 2016, dated 2017).
Marks after values point to notes of the source that are not given here. Each block holds one molecule with its values, some of them ahead of it.

How the values were obtained:
Experiment in all cases: kinetic parameters of purified PPADH by photometry
Format in all cases: biochemical, Pichia pastoris GS 115
[1] = target: alcohol dehydrogenase from Pichia pastoris (PPADH) (Komagataella phaffii, UniProt C4R4L0)
Method: (§1) In order to determine the kinetic parameters of the recombinant PPADH, purified enzyme was manufactured as described in example 4b). Afterwards the described test for reductive activity was used. All parameters such as 100 mM tris HCl buffer (pH 7), 0.2 mM NADPH, and 10 µl enzyme (purified PPADH) were kept constant, except that concentration of substrate and concentration of co-factor were varied. The kinetic parameters were calculated using the software GraphPad Prism5 based on a non-linear ,fitting"-algorithm. Table 4: kinetic parameters of purified PPADH regarding benzaldehyde, racemic CF3-ketone as substrates and the co-factor NADPH determined by photometry

[2] = substrate: CC(=O)CC(O)(c1ccccc1)C(F)(F)F
Method: as §1

[3] = substrate: O=Cc1ccccc1; details: other: purified PPADH, tris HCl pH 7, non-linear fitting
Method: as §1

[4] = other: purified PPADH, tris HCl pH 7, non-linear fitting

Vmax ([1]; tris HCl pH 7): 94.2 U/mg | kcat ([1]; tris HCl pH 7): 19.5 s⁻¹ | Km ([1]; tris HCl pH 7, non-linear fitting): 48.3 µM
Molecule: NC(=O)C1=CN([C@@H]2O[C@H](COP(=O)(O)OP(=O)(O)OC[C@H]3O[C@@H](n4cnc5c(N)ncnc54)[C@H](OP(=O)(O)O)[C@@H]3O)[C@@H](O)[C@H]2O)C=CC1 [NADPH]

B1: alcohol dehydrogenase from Pichia pastoris (PPADH) (Komagataella phaffii GS115) (protein)
chain: MVSKVLLTGASGYIAQHITNELLSHGFKVIGTVRRQEQADQLHKQFSEESSVLQKDPSLLTYVLVPDIGASDAFDEVLKSTPDITYVLHTASPFIFNDDRALEDVYLKPAVEGTRNILSAIKKFANDSVKNVVVTSSFAAILNADKFEDKSFIHTEKVWNNNTWDQTKSGDRGVAYIVSKKEAEKAAWDFVEKEKPNFKLTTVNPPYVFGPQKFDASAKKESLNTSAEIVGSLLHTKYPSDDKLFDDPLNLSVDVRDVALYHVLPLLNADLASRRLLVVQSKFSAQRILNIINENFPELKGKIAVGKPEETARVEAIKGPEYNNSVTVGLTGVDPIPLEKTVVDSVKQILRANK
Km ([2]; other: corrected for 50% (S)-enantiomer in the racemic substrate, pH 7.0): 899 µM | Km [2, 4]: 1797.0* µM | Vmax [2, 4]: 46.3 U/mg | kcat [2, 4]: 6.4 s⁻¹ | kcat/Km [2, 4]: 3.6* s^-1mM^-1 | Km [3]: 3034.0 µM | Vmax [3]: 98.5 U/mg | kcat [3]: 25.1 s⁻¹ | kcat/Km [3]: 8300 M⁻¹ s⁻¹
